Results: the supplement of paper PMC10567573

B1: ANKRD40 (parent)
chain: YQELLRVCCCELGVNPDQVEKIRK

Variants of: B1
Assay: protein stability index of a GFP-peptide fusion (GPS, HEK-293T) (PSI 1-6); higher = more stable
Details: c terminus: a fixed tail appended
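Note: lentivirally expressed fusions sorted by FACS into six bins by GFP to DsRed ratio, PSI derived from sequencing read proportions per bin multiplied by bin number.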

Protein stability index, by site and new letter:
V19: Y 2.26, W 1.75, P 2.19, N 1.34, F 2.19, L 2.2, I 2.25, K 2.68, A 1.79, Q 2.29, S 1.66, E 2.51, H 2.27, M 2.37, R 1.6, C 2.1, G 1.64, D 1.66
K21: H 1.49, C 1.82, F 2.97, R 2.12, D 1.66, P 1, E 2.4, Y 2.15, L 1.05, A 2.02, I 1.81, N 1.85, W 2.33, G 1.82, V 2.54
L4: C 2.15, Y 2.38, N 2.55, I 2.58, T 2.53, E 3.05, Q 2.42, K 2.94, R 1.79, H 3, M 1.82, D 3.98, S 2.27, A 2.63
V14: Y 2.13, I 1.61, H 2.22, T 1.99, M 2.07, E 2.72, L 2.18, F 2.27, R 1.5, S 2.32, Q 1.72, N 1.85, C 2.08, A 1.99, P 2.02, D 2.88
V7: F 1.61, H 2.59, P 2.5, Y 1.79, Q 1.97, E 2.28, R 1.41, G 1.48, N 1.96, L 1.46, A 2.15, I 2.03, D 2.53, K 2.23, C 2.1
E20: N 1.99, S 1.31, C 1.56, V 1.99, H 1.26, R 1.96, D 2.94, K 1.96, P 1.66, L 2.4, T 1.47, I 3.43, M 1.85, Q 1.75, A 1.97
C8: W 2.02, H 2.84, S 3.33, D 3.81, G 2.8, M 2.09, Q 3.52, T 3.53, F 1.44, R 2.21, A 3.16, E 3.56, N 3.48, I 2.38, Y 2.09, K 2.19, L 2.24, P 2.12
R6: W 1.58, C 1.92, K 1.91, E 2.36, T 1.54, L 1.74, D 2.56, M 1.73, N 2.26, P 2.02, S 2.03, Q 2.26, I 1.49, Y 2.18, A 2.02, G 2.23, F 1.78, H 2.11
D17: I 1.69, Q 2.94, M 1.56, F 1.87, V 2.73, Y 2.01, R 2.04, K 1.69, W 2.12, C 2.01, T 2.42, N 2.11, G 2.42, L 1.59, S 2.4
Q2: C 1.64, L 1.51, H 1.77, K 2.5, R 2.58, W 1.67, N 2.52, Y 1.86, E 2.98, P 2.08, M 1.76, D 2.47, F 1.44, G 2.08, S 1.57, A 1.94, I 1.73
Q18: F 1.01, N 2.32, T 2.16, H 1.48, L 1.67, V 1.8, A 1.32, I 1.89, Y 1.19, P 1.4, E 2.13, C 1.52, D 2.73, M 2.02, S 2.08, G 2.02
L12: R 1.7, C 2.03, P 2.55, V 1.64, K 2.49, N 2.86, H 1.88, M 2.05, I 2.21, W 1.65, Y 2.24, A 1.78, D 2.64, S 2.15, F 2.21, Q 2.81, E 2.75, G 2.31
N15: C 1.63, M 2.21, D 2.08, R 2.21, H 2.75, T 3.74, F 1.45, A 1.96, E 2.27, Q 1.62, P 2.8, K 2.08, I 1.37, Y 1.78, G 1.26, L 1.39, S 2.1
C9: P 2.59, T 2.23, E 2.35, R 2.31, W 2.23, Y 2.66, D 3.15, F 3.38, H 2.15, K 2.23, V 1.82, M 1.81, G 3.22, L 1.55, S 2.14, N 2.15, Q 2.27, I 1.06, A 2.61
I22: A 2.02, K 2.43, C 2.13, E 2.14, G 2, F 2.44, D 2.25, H 2.69
L5: T 1.91, N 1.99, I 1.77, H 2.18, C 3.06, Q 3.04, M 2.41, K 2.37, G 2.05, D 3.26, P 1.75, A 2.5
E3: P 2.21, N 2.09, A 1.52, D 1.59, K 1.96, M 1.64, I 1.57, Y 1.66, R 1.21, T 2.13, Q 1.59, F 1.76, S 2.26, H 2.01
C10: V 2.1, I 1.63, M 2.08, P 2.31, R 2.35, G 2.22, F 1.68, S 2.24, H 2.63, W 1.81, Q 2.92, T 2.04, L 1.86
Y1: T 2.53, W 1.29, V 1.15
G13: E 2.42, T 2.13, Q 1.57, K 1.62, W 2.84, C 1.63, F 1.55, S 3.16, V 1.71, M 2.01, L 1.62, Y 1.05, A 2.08, I 1.78, H 1.79, R 1.66, P 2.06, N 1.78, D 2.19
E11: N 1.76, C 2.62, P 1.94, L 2, I 1.49, G 1.86, W 1, A 1.32, Y 1.27, F 2.19, V 1.56, M 2.03, S 1.22, K 2.89, R 1.32, D 1.89, T 1.98, H 1.79
P16: C 2.52, F 1.14, N 2.4, S 2.06, I 1.52, K 2.26, D 2.86, R 2.41, L 2.11, Y 1.99, M 1.5, Q 2.5, H 1.43, T 1.29, E 2.14, A 1.81
